Measured values taken from US12564623B2, “Methods and compositions for treating cancer” (The University of Chicago, priority 2017, dated 2026).
Entries after “also recorded” stand apart in the source; their conditions may differ.

T1: CD95 (Homo sapiens, UniProt P25445)
T1 sequence (P25445 26-335): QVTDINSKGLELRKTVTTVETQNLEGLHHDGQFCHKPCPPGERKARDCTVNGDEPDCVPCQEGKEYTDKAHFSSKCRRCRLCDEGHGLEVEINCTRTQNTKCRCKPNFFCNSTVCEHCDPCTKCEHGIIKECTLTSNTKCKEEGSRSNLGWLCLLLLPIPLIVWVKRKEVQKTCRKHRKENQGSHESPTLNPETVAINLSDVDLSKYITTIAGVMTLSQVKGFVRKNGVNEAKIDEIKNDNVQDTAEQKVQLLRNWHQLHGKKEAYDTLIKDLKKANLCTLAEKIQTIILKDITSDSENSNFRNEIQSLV

T2: ELANE (Homo sapiens, UniProt P08246)
T2 construct: incubated the neutrophil conditioned media with magnetic beads coupled to an anti-ELANE antibody; endogenous in cells; host or cells: human peripheral blood neutrophils from healthy donors (conditioned media)
T2 sequence (P08246 30-267): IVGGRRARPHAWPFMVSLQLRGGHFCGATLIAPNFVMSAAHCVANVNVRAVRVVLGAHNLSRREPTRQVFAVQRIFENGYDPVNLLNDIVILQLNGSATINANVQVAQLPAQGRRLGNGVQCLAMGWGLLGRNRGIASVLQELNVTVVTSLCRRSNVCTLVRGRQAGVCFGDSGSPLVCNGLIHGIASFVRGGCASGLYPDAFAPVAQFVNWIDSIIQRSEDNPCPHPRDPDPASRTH


Assays:
MDA-MB-231 cells = assay: Cancer cell killing, Calcein AM staining; format: cell-based, human
Method: Approach to identify the factor(s) mediating selective killing. A quantitative cancer cell killing assay was developed to track the bioactive factor(s). MDA-MB-231 cells were treated with various doses of PMN media and cell viability was assessed by Calcein AM live cells fluorescence staining. […] (FIG. 3B) PMN media was passed through a 0.22 μm filter, and protein concentration and killing activity on MDA-MB-231 cancer cells was measured in both pre- and post-filter solutions. […] ELANE and ECP levels in PMN media pre- and post-filtration were quantified by mass spectrometry (spectral counts).
To determine if ELANE and/or ECP were responsible, the inventors (1) immuno-depleted ELANE or ECP from PMN media; (2) treated cancer or normal cells with purified native ELANE or ECP from commercial sources. (FIG. 6A) ELANE or ECP were depleted from PMN media by immunoprecipitation; depletion was confirmed by western blotting. PMN media pre-depletion=Orig. and post-depletion=FT. Non-specific IgG was used as a control. (FIG. 6B) MDA-MB-231 cells or human monocyte-derived macrophages (HMDMs) were treated with purified native ELANE or ECP at various doses for 24h, and killing was assessed by Calcein AM staining. (FIG. 6C) MDA-MB-231 cells and HMDMs were treated with levels of ELANE (0.25 μg/mL) or ECP (0.05 μg/mL) that were present in the PMN media, alone or in combination for 24 hrs, and killing was examined by Calcein AM staining.
High doses of ECP or ELANE can kill cancer cells. The inventors sought to determine whether adding purified human ECP (Lee Biosolutions), human ELANE (Abcam), human DEFA1 (Abcam), human ANXA6 (R&D Systems) or human CASP3 (Abcam) individually could kill cancer cells without killing non-cancer cells. Increasing doses of each protein were added to MDA-MB-231 cells for 5h or human monocyte-derived macrophages (HMDMs) for 24 h and cell viability was determined by Calcein-AM.
ELANE and ECP synergize to selectively kill cancer cells. MDA-MB-231 and human monocyte-derived macrophages (HMDMs) were treated with levels of ELANE (0.25 μg/mL) or ECP (0.05 μg/mL) that were present in the PMN media, alone or in combination for 24 hrs. killing was examined by Calcein AM staining.
Combining chemotherapeutics and neutrophil conditioned media enhances the killing of human triple negative breast cancer cells. MDA-MB-231 cells were treated with neutrophil conditioned media (Neu-CM; 4 μg/mL), doxorubicin (DOX; 0.3 μM), or paclitaxel (PTX; 3 nM) for 4h, individually or in combination, and cell viability was assessed by Calcein-AM.
(§1) Other serine proteases cleave the C-terminal domain of CD95, and the ability to cleave the C-terminal domain is associated with cancer cell killing. (FIG. 12A) Full length recombinanat CD95 protein was incubated with various serine proteases (human ELANE (80 nM), PR3 (80 nM), CSTG (80 nM), PPE (80 nM), mouse ELANE (80 nM), rat ELANE (500 nM), GZMB (80 nM), or Trypsin (250 nM)), or other types of proteases (CTSC (80 nM); or MMP7 (80 nM), MMP9 (80 nM), CTSD (80 nM) not shown) at 37° C. for 2 hours. Degradation was assessed by SDS-PAGE followed by coomassie blue staining. (FIG. 12B) MDA-MB-231 cancer cells were incubated with various proteases for 24 hrs. Cell viability was assessed by Calcein AM staining.
(FIG. 13A) MDA-MB-231 cancer cells were treated with various doses of purified native ELANE or purified native porcine pancreatic elastase (PPE) for 6 h, and killing was assessed by Calcein AM staining. (FIG. 13B). Purified native ELANE or purified native PPE was incubated with different concentrations of alpha-1-anti-trypsin (A1AT) for 15 mins. Catalytic activity was measured using a chromogenic substrate assay. Cancer cell killing capability was determined by treating MDA-MB-231 cancer cells with ELANE or PPE in the presence or absence of A1AT for 6h, followed by Calcein AM staining. (FIG. 13C) Catalytic activity was measured using a chromogenic substrate assay. […]

[1] = target: alpha-1-anti-trypsin (A1AT) (Homo sapiens, UniProt P01009); assay: Inhibition of elastase activity and killing by A1AT or FBS; format: biochemical; settings: 15 mins, killing 6 h
Method: (FIG. 13A) MDA-MB-231 cancer cells were treated with various doses of purified native ELANE or purified native porcine pancreatic elastase (PPE) for 6 h, and killing was assessed by Calcein AM staining. (FIG. 13B). Purified native ELANE or purified native PPE was incubated with different concentrations of alpha-1-anti-trypsin (A1AT) for 15 mins. Catalytic activity was measured using a chromogenic substrate assay. Cancer cell killing capability was determined by treating MDA-MB-231 cancer cells with ELANE or PPE in the presence or absence of A1AT for 6h, followed by Calcein AM staining. (FIG. 13C) Catalytic activity was measured using a chromogenic substrate assay. Cancer cell killing capability was determined by treating MDA-MB-231 cancer cells with ELANE or PPE in the presence or absence of FBS for 6 h, followed by Calcein AM staining.
Elastase activity for purified native ELANE or purified native PPE at various dose were measured. It's corresponding killing ability was also tested on MDA-MB-231 cancer cells. Killing was assessed 6 hrs after treatment by Calcein AM staining. […] Killing was assessed 6 hrs after treatment by Calcein AM staining. […] Killing was assessed 6 hrs after treatment by Calcein AM staining.

CD95 = target: T1, CD95; assay: Recombinant CD95 degradation, SDS-PAGE and coomassie blue; format: biochemical; parameters: Recombinant proteins (1 μg) corresponding to full length CD95 (FL-CD95); settings: purified CD95
Method: ELANE lowers CD95 levels in cancer cells and reduced CD95 levels are associated with apoptosis. (FIG. 8A) Recombinant proteins (1 μg) corresponding to full length CD95 (FL-CD95), N-terminal domain of CD95 (amino acids 1-173; N-CD95), or C-terminal domain of CD95 (amino acids 157-320; C-CD95) were inbuated with ELANE (0.05 μg) or vehicle (Veh) for 2 hrs at 37° C. Degradation was assessed by SDS-PAGE followed by coomassie blue staining. […] (FIG. 8C) Cancer cells were treated with ELANE (50 nM) for 1 hr, fixed in 10% formalin, and stained with N- or C-terminal specific anti-CD95 antibodies (green). Hoechst 33342 solution was used for nuclear staining (blue). Images were taken under 40×.
ELANE selectively cleaves the C-terminal domain of CD95. The CD95 pathway is essential for the survival of a wide range of cancer cells, but largely dispensable for normal cell survival (Adachi et al., Nat. Genet., 1995; Karray et al., J. Immunol., 2004). CD95 function can be modulated by proteolysis (Strand et al., Oncogene, 2004). To test CD95 involvement in ELANE mediated cell killing ELANE (0.05 μg) was incubated with 1 μg recombinant human C-terminal (aa. 157-320) or N-terminal (aa. 1-173) CD95 for 2 hrs at 37° C. Degradation was assessed by SDS-PAGE followed by staining with coomassie blue. C-terminal domain cleavage. N-terminal domain cleavage. Cancer cells were treated with ELANE (50 nM) for 1 hr, fixed in 10% formalin, and stained with N- or C-terminal specific anti-CD95 antibodies. Hoechst 33342 solution was used for nuclear staining. Images were taken under 40×. […] Mel888 cancer cells were treated with ELANE (50 nM) for various times, and CD95 degradation was assessed by western blot analysis with a C-terminal specific anti-CD95 antibody.
as §1

ELANE [2] = target: T2, ELANE; assay: ELANE catalytic activity with increasing ECP, chromogenic substrate activity assay; format: biochemical; settings: ECP as type 2 allosteric activator
Method: (§2) FIG. 7A-D. ECP is a type II allosteric activator of ELANE catalytic activity. (a) 10 nM ELANE was incubated with increasing ECP concentrations at various substrate concentrations. Catalytic activity was measured by a chromogenic substrate activity assay. (b) Km (app) and Vmax (app) values were obtained by fitting curves to Michaelis-Menten equations (lines). (c) Km (app) versus ECP concentration. (d) Vmax (app) versus ECP concentration. ELANE was immunoprecipitated from human PMN media and samples were probed with anti-ELANE and anti-ECP antibodies. Orig=PMN media, Sup=flow-though, Wash=bead wash, Elute=bound to anti-ELANE antibody.
as §2, with “ECP” for “FIG. 7A-D. ECP”, “(FIG. 7A)” for “(a)”, “(FIG. 7B)” for “(b)”, “(FIG. 7C)” for “(c)”, “(FIG. 7D)” for “(d)”

[3] = system: human monocyte-derived macrophages (HMDMs); format: cell-based
Method: Human peripheral blood neutrophils were isolated from healthy donors. Cells were plated in serum-free DMEM and the neutrophil conditioned media (Neu CM) was collected for 24h. […] High doses of ECP or ELANE can kill cancer cells. The inventors sought to determine whether adding purified human ECP (Lee Biosolutions), human ELANE (Abcam), human DEFA1 (Abcam), human ANXA6 (R&D Systems) or human CASP3 (Abcam) individually could kill cancer cells without killing non-cancer cells. Increasing doses of each protein were added to MDA-MB-231 cells for 5h or human monocyte-derived macrophages (HMDMs) for 24 h and cell viability was determined by Calcein-AM. […] ELANE and ECP synergize to selectively kill cancer cells. MDA-MB-231 and human monocyte-derived macrophages (HMDMs) were treated with levels of ELANE (0.25 μg/mL) or ECP (0.05 μg/mL) that were present in the PMN media, alone or in combination for 24 hrs. killing was examined by Calcein AM staining.

ELANE [4] = target: T2, ELANE; assay: Anti-ELANE magnetic bead pull-down from neutrophil conditioned media, western blotting; format: binding; settings: anti-ELANE antibody beads
Excerpt: Identification of ECP, ELANE, ANXA6, DEFA1, and CASP3 as candidate cancer cell killing proteins in the neutrophil conditioned media. Neutrophil conditioned media was obtained from 2 different donors (Donor 1 and Donor 2). […] To determine the identity of the proteins depleted by the 0.2 μm sterile filter, the inventors performed quantitative proteomics analysis on the conditioned media from each donor pre- and post-filter. Proteomics analysis identified 2000 proteins, 4 of which (ECP, ELANE, ANXA6, and DEFA1) were depleted in samples from both donors (G-test, p<0.05). The inventors explored the possibility that these proteins might interact with or complement one another. This hypothesis was tested using two approaches. First, the inventors incubated the neutrophil conditioned media with magnetic beads coupled to an anti-ELANE antibody and analyzed the supernatant (sup), wash, and eluent (elute) by western blotting.

alpha-1-anti-trypsin (A1AT), sequence (P01009 25-418, species assumed): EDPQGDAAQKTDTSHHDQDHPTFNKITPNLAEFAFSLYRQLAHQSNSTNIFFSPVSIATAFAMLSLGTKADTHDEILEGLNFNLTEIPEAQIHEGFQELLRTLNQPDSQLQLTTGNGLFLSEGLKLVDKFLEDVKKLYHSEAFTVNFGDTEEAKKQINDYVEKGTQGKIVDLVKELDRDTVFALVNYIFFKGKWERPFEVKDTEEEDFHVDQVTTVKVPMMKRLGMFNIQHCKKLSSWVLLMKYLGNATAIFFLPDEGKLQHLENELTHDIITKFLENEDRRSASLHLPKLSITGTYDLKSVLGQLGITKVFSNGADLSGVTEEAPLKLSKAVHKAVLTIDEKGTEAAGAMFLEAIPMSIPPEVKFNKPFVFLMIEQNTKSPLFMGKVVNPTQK

| Molecule | cancer cell killing by proteases (MDA-MB-231 cells) | toxicity to cancer cells, ELANE versus PPE (MDA-MB-231 cells; various doses, 6 h) | susceptibility to inhibition by serine protease inhibitors [1] | cleavage of purified CD95 (CD95) | effect on KM of ELANE (ELANE [2]) | increase of kcat of ELANE for its substrate (ELANE [2]) [fold] | cancer cell killing activity of purified protein (MDA-MB-231 cells; increasing doses, 5h) | toxicity to human monocyte-derived macrophages [3] | binding to ELANE (ELANE [4]) |
| --- | --- | --- | --- | --- | --- | --- | --- | --- | --- |
| porcine pancreatic elastase [PPE] | killed cancer cells | equally toxic to cancer cells | more resistant to inhibition by serine protease inhibitors; also recorded: less susceptibility to alpha 1 anti-trypsin (A1AT) or serum blocking | cleaved purified CD95 with an identical degradation pattern to ELANE |  |  |  |  |  |
| eosinophil cationic protein (protein, listed as Homo sapiens) MVPKLFTSQICLLLLLGLMGVEGSLHARPPQFTRAQWFAIQHISLNPPRCTIAMRAINNYRWRCKNQNTFLRTTFANVVNVCGNQSIRCPHNRTLNNCHRSRFRVPLLHCDLINPGAQNISNCTYADRPGRRFYVVACDNRDPRDSPRYPVVPVHLDTTI |  |  |  |  | without altering KM | 12 | highest cancer cell killing activity | showed toxicity | ELANE-binding proteins |
